{
  "source": "patent US20250361297A1",
  "about": "(ADAPTAM THERAPEUTICS S L, published 2025)",
  "binders": {"B1": {"name": "S15B1 (antibody, V domains shown)", "VH": "QVQLQQSGPELVKPGASVKISCKASGYAFSSSWMNWVKQRPGKGLEWIGRIYPGHGETNYNGKFKDKATVTADKSSSTTYMQLSSLTSEDSAVYFCARVDNSDPYYFDYWGQGTTLTVSS", "VL": "DIVLTQSPASLAVSLGQRATISCRASKSVSTSGYSYMHWYQQKPGQPPKLLIYLASNLESGVPARFSGSGSGTDFTLNIHPVEEEDAATYYCQHGRELPFTFGSGTKLEIK", "notes": "Mouse hybridoma monoclonal antibody ('parental mouse S15B1'); also called clone S15B1; S15B1-VH + VL (Parental)"}, "B2": {"name": "S15B1-Exatecan ADC (other)", "VH": "B1 VH", "VL": "B1 VL", "modifications": "MC-GGFG-Exatecan payload linker conjugated to the antibody; residue not stated", "notes": "Antibody-drug conjugate; also called S15B1-based antibody-drug conjugate with Exatecan"}, "B3": {"name": "ZLA-1243-E01-MMAE (other)", "VH": "QVQLVQSGGGLVQPGRSLRLSCAASGFTFDDYAMHWVRQAPGKGLEWVSGISWNSGSIGYADSVKGRFTISRDNAKNSLYLQMNSLRAEDTALYYCAKGLWPSYDLDAFDIWGQGTMVTVSS", "VL": "QSALTQPASVSGSPGQSITLSCTGTSSDVGAYNFVSWYQQHPGTAPKLMIYEVSNRPSGVSDRFSGSKSGNTASLTISGLQAEDEADYYCSSYTSTIPPFVFGTGTKVTVL", "modifications": "vc-MMAE payload linker conjugated to the antibody; residue not stated"}, "B4": {"name": "ZLA-1214-H05 (antibody, V domains shown)", "VH": "QVQLVQSGAEVKKPGASVKVSCKASGYTFTSYGISWVRQAPGQGLEWMGWISAYNGNTNYAQKLQGRVTMTTDTSTSTAYMELRSLRSDDTAVYYCARMSGYYGMDVWGQGTLVTVSS", "VL": "DIQLTQSPSSLSASVGDRVTITCQASQGISNYLNWYQQKPGKAPKLLIYDASNLETGVPSRFSGSGSGTDFTFTISSLQPEDIATYYCQQYDNLPLTFGGGTKLEIK", "notes": "Fully human, from phage display"}},
  "key": {"[1]": {"biological_target": "T1, truncated human Siglec-15 comprising only domain 2 (D2), expressed on HEK293T cells (human, UniProt Q6ZMC9 168-251, limits assumed)", "T1 construct": "also called domain 2-only human Siglec-15; Siglec-15 Domain 2 (D2) HEK293T cells", "T1 sequence": "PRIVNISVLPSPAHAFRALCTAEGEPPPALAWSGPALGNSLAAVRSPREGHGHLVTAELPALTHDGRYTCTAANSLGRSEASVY", "assay": "flow cytometry on HEK 293T cells expressing only D2; compared to antibody clone A2A5C7E8"}, "[2]": {"biological_target": "T2, human Siglec-15, full length, expressed on cells (human, UniProt Q6ZMC9 20-328)", "T2 construct": "also called hS15; MOLM-13 Siglec-15 expressing cells", "T2 sequence": "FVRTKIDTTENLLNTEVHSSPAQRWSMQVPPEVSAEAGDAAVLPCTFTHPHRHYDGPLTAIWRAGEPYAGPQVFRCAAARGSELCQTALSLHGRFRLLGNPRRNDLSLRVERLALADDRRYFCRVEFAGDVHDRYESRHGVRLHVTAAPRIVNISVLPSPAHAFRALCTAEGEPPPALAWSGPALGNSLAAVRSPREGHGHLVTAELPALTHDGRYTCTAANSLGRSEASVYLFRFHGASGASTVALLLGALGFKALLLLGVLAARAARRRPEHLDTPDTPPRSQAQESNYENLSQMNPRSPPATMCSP", "assay": "flow cytometry, HEK293T cells expressing human Siglec-15, anti-human IgG-PE, MFI"}, "[3]": {"biological_target": "T3, recombinant cynomolgus Siglec-15-his protein (Bonopusbio, CW70-50 ug) (cynomolgus monkey, UniProt Q6ZMC9 20-259 (human entry))", "T3 construct": "whole entry named; also called cynomolgous Siglec-15", "T3 chain": "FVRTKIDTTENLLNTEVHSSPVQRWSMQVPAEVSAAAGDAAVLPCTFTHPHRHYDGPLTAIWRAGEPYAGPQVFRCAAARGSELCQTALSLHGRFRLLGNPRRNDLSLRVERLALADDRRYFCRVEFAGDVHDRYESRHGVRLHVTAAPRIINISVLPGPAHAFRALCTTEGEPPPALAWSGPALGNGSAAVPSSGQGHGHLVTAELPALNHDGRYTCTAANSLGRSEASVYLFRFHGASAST", "assay": "ELISA, plate coated with recombinant cynomolgus Siglec-15-his, antibody titrated up to about 200 nM, OD 450 nm"}, "[4]": {"biological_target": "T4, recombinant human Siglec-15-his protein (Bonopusbio) (human, UniProt Q6ZMC9 20-263)", "T4 construct": "Bought (CW37-50 ug in the ELISA; the SPR paragraph prints CW70-50 ug); whole entry named; also called recombinant human Siglec-15 protein", "T4 sequence": "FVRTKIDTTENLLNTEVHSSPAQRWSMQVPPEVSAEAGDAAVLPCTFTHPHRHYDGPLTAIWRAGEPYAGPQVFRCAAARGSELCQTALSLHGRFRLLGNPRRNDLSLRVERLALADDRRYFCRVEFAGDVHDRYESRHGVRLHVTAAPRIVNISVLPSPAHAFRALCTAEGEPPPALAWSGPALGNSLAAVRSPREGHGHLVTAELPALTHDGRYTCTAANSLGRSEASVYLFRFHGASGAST", "assay": "SPR (Biacore T200), antibody on CM5 chip, Siglec-15-his as analyte"}, "[5]": {"biological_target": "T5, recombinant Siglec-15 (bispecific antibody affinity assay) (Homo sapiens (Human), UniProt Q6ZMC9 20-263, limits assumed)", "T5 sequence": "T4 sequence", "assay": "antibody as ligand, human Siglec15 as analyte; legend paragraph 114 says BLI, methods paragraph 422 say Biacore SPR, table in RU"}, "[6]": {"biological_target": "T4, recombinant human Siglec-15-his protein …", "assay": "ELISA, plate coated with 100 ng per well recombinant human Siglec-15 (supplier not named in Example 3), HRP anti-mouse IgG, OD450"}, "[7]": {"biological_target": "T2, human Siglec-15, full length, expressed …", "assay": "flow cytometry, THP-1 cells overexpressing human Siglec-15, ADC titrated, anti-human IgG-PE, gMFI"}, "[8]": {"biological_target": "T2, human Siglec-15, full length, expressed …", "assay": "flow cytometry, THP-1 cells overexpressing human Siglec-15, ADC titrated, anti-human IgG-PE, gMFI", "remark": "listed apart in the source"}, "[9]": {"biological_target": "T2, human Siglec-15, full length, expressed …", "assay": "IgG1 titration, flow cytometry on MOLM-13 human Siglec-15 cells"}, "[10]": {"biological_target": "T6, mouse Siglec-15, full length, expressed on HEK293T cells (mouse)", "T6 construct": "also called mS15; HEK293T cells expressing mouse Siglec-15", "T6 chain": "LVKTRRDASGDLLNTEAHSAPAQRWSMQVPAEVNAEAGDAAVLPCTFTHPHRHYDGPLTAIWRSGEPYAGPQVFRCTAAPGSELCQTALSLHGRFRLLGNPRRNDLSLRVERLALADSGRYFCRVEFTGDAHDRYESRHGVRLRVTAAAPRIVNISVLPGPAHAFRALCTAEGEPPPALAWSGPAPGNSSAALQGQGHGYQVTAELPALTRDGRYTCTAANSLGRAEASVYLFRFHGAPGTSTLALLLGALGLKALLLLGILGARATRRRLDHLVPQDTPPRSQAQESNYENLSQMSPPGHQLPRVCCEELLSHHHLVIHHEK", "assay": "IgG1 titration, flow cytometry on HEK293T cells expressing mouse Siglec-15"}, "[11]": {"biological_target": "T1, truncated human Siglec-15 comprising …", "assay": "flow cytometry on HEK293T cells expressing domain 2 only (FIG. 16)"}},
  "data": [
    {"binder": "B1", "values": [
      {"measurement": "fold increase in antibody-positive cells", "setting": "[1]", "value": "~4", "unit": "fold"},
      {"measurement": "EC50 (read off the curve)", "setting": "[2]", "value": "~500", "unit": "pM"},
      {"measurement": "EC50 (read off the curve)", "setting": "[3]", "value": "~600", "unit": "pM"},
      {"measurement": "Kd", "setting": "[4]", "value": 52.2, "unit": "pM"},
      {"measurement": "koff", "setting": "[4]", "value": 0.000233, "unit": "s⁻¹"},
      {"measurement": "kon", "setting": "[4]", "value": "4.46e+06", "unit": "M⁻¹ s⁻¹"},
      {"measurement": "Kd", "setting": "[5]", "value": 49.7, "unit": "pM"},
      {"measurement": "koff", "setting": "[5]", "value": 0.000154, "unit": "s⁻¹"},
      {"measurement": "kon", "setting": "[5]", "value": "3.11e+06", "unit": "M⁻¹ s⁻¹"},
      {"measurement": "EC50 (read off the curve)", "setting": "[6]", "value": "~0.2", "unit": "µg/mL"}
    ]},
    {"binder": "B2", "values": [
      {"measurement": "EC50 (read off the curve)", "setting": "[7]", "value": "~6000", "unit": "pM"}
    ]},
    {"binder": "B3", "values": [
      {"measurement": "EC50 (read off the curve)", "setting": "[8]", "value": "~3000", "unit": "pM"}
    ]},
    {"binder": "B4", "values": [
      {"measurement": "EC50", "setting": "[9]", "value": 0.593, "unit": "µg/mL"},
      {"measurement": "EC50", "setting": "[10]", "value": 0.561, "unit": "µg/mL"},
      {"measurement": "binding result", "setting": "[11]", "value": "no binding"}
    ]}
  ]
}
